The record followed here is patent US20180362668A1 (JIANGSU ALPHAMAB BIOPHARMACEUTICALS, published 2018).

Series [1] deals with the molecule itself. The experiment in a line: non-reducing SDS-PAGE densitometry of Protein A-purified co-transfection product; chain A:chain B vectors 1:1. From the text: The cotransfection ratio of recombinant expression vector of the chain A to that of the chain B was 1:1.
Series [2] concerns the molecule itself. The experiment in a line: non-reducing SDS-PAGE densitometry of Protein A-purified co-transfection product; chain A:chain B vectors 1:4. From the text: (§1) The cotransfection ratio of recombinant expression vector of the chain A to that of the chain B was 4:1, 1:1 and 1:4.
Series [3] deals with the molecule itself. The series is described as follows: non-reducing SDS-PAGE densitometry of Protein A-purified co-transfection product; chain A:chain B vectors 4:1.
Excerpt: as §1

Series [4] deals with the molecule itself. The series is described as follows: non-reducing SDS-PAGE densitometry of Protein A-purified co-transfection product; chain A:chain B vectors 1:1.
Excerpt: as §1
This is another data set of the same source.

Series [5] concerns the molecule itself. The description is as above. From the text:
(§2) The cotransfection ratio of recombinant expression vector of the chain A to that of the chain B was 4:1, 1:1 and 1:4. The transiently expressed culture supernatant was collected after 5-6 days of cultivation.
The source holds these as a separate data set.

Series [6] concerns the molecule itself. The experiment in a line: non-reducing SDS-PAGE densitometry of Protein A-purified co-transfection product; chain A:chain B vectors 1:4.
Excerpt: as §2
This is another data set of the same source.

Series [7] concerns the molecule itself. The experiment in a line: non-reducing SDS-PAGE densitometry of Protein A-purified co-transfection product; chain A:chain B vectors 4:1.
Excerpt: as §2
This is another data set of the same source.

B1: Fc protein chain B with D356C + T366S + L368A + Y407V + F405K + Q347R (other)
chain: DKTHTCPPCPAPELLGGPSVFLFPPKPKDTLMISRTPEVTCVVVDVSHEDPEVKFNWYVDGVEVHNAKTKPREEQYNSTYRVVSVLTVLHQDWLNGKEYKCKVSNKALPAPIEKTISKAKGQPREPRVYTLPPSRCELTKNQVSLSCAVKGFYPSDIAVEWESNGQPENNYKTTPPVLDSDGSFKLVSKLTVDKSRWQQGNVFSCSVMHEALHNHYTQKSLSLSPGK
notes: also called combination 7 chain B
As to B1, in series [1], the “Proportion of Fc homodimer (%)” value was 12%.

B2: Fc protein chain B with D356C + T366S + L368A + Y407V + F405K + K360E + Q347E (other)
chain: DKTHTCPPCPAPELLGGPSVFLFPPKPKDTLMISRTPEVTCVVVDVSHEDPEVKFNWYVDGVEVHNAKTKPREEQYNSTYRVVSVLTVLHQDWLNGKEYKCKVSNKALPAPIEKTISKAKGQPREPEVYTLPPSRCELTENQVSLSCAVKGFYPSDIAVEWESNGQPENNYKTTPPVLDSDGSFKLVSKLTVDKSRWQQGNVFSCSVMHEALHNHYTQKSLSLSPGK
notes: also called combination 8 chain B
Take B2: in series [1], the “Proportion of Fc homodimer (%)” value was found to be 8%.

B3: ScFv-Fc fusion protein chain A with T366W + K409A + Y349D (Fc fusion)
chain: EVQLLESGGGVVQPGRSLRLSCIASGFTFSSYPMTWVRQAPGKGLEWVASISYDGSYKYKADSMKGRLTISRDNSKNTLYLEMNSLTAEDTAVYYCARTAFFNAYDFWGQGTLVTVSSASTKGPSVGGGGSGGGGSEIVMTQSPATLSVSPGERATLSCRASQSVRSNLAWYQQKPGQAPRLLIYAASTRATGIPARFSGSGSGTEFTLTISSLQSEDFAVYYCQQYNEWFRTSGQGTKVEIKRDKTHTCPPCPAPELLGGPSVFLFPPKPKDTLMISRTPEVTCVVVDVSHENPEVKFNWYVDGVEVHNAKTKPREEQYNSTYRVVSVLTVLHQDWLNGKEYKCKVSNKALPAPIEKTISKAKGQPREPQVDTLPPSRDELTKNQVSLWCLVKGFYPSDIAVEWESNGQPENNYKTTPPVLDSDGSFFLYSALTVDKSRWQQGNVFSCSVMHEALHNHYTQKSLSLSPGK
notes: Positions are EU index; it is not used here; also called combination 12 chain A
B3: the results for the “ScFv-Fc homodimer (%)” value in series [2], in series [3] and in series [4] were 9%, 48% and 14%, respectively.

B4: ScFv-Fc fusion protein chain A with T366W + K409A + K392D (Fc fusion)
chain: EVQLLESGGGVVQPGRSLRLSCIASGFTFSSYPMTWVRQAPGKGLEWVASISYDGSYKYKADSMKGRLTISRDNSKNTLYLEMNSLTAEDTAVYYCARTAFFNAYDFWGQGTLVTVSSASTKGPSVGGGGSGGGGSEIVMTQSPATLSVSPGERATLSCRASQSVRSNLAWYQQKPGQAPRLLIYAASTRATGIPARFSGSGSGTEFTLTISSLQSEDFAVYYCQQYNEWFRTSGQGTKVEIKRDKTHTCPPCPAPELLGGPSVFLFPPKPKDTLMISRTPEVTCVVVDVSHENPEVKFNWYVDGVEVHNAKTKPREEQYNSTYRVVSVLTVLHQDWLNGKEYKCKVSNKALPAPIEKTISKAKGQPREPQVYTLPPSRDELTKNQVSLWCLVKGFYPSDIAVEWESNGQPENNYDTTPPVLDSDGSFFLYSALTVDKSRWQQGNVFSCSVMHEALHNHYTQKSLSLSPGK
notes: Positions are EU index; also called combination 10 chain A
As to B4, the “ScFv-Fc homodimer (%)” value is < 1% in series [2], 39% in series [3] and 7% in series [4].

B5: ScFv-Fc fusion protein chain A with T366W + F405K + D399S (Fc fusion)
chain: EVQLLESGGGVVQPGRSLRLSCIASGFTFSSYPMTWVRQAPGKGLEWVASISYDGSYKYKADSMKGRLTISRDNSKNTLYLEMNSLTAEDTAVYYCARTAFFNAYDFWGQGTLVTVSSASTKGPSVGGGGSGGGGSEIVMTQSPATLSVSPGERATLSCRASQSVRSNLAWYQQKPGQAPRLLIYAASTRATGIPARFSGSGSGTEFTLTISSLQSEDFAVYYCQQYNEWFRTSGQGTKVEIKRDKTHTCPPCPAPELLGGPSVFLFPPKPKDTLMISRTPEVTCVVVDVSHENPEVKFNWYVDGVEVHNAKTKPREEQYNSTYRVVSVLTVLHQDWLNGKEYKCKVSNKALPAPIEKTISKAKGQPREPQVYTLPPSRDELTKNQVSLWCLVKGFYPSDIAVEWESNGQPENNYKTTPPVLSSDGSFKLYSKLTVDKSRWQQGNVFSCSVMHEALHNHYTQKSLSLSPGK
notes: Positions are EU index; also called combination 15 chain A
For B5, the “ScFv-Fc homodimer (%)” value in series [5] was 6%; in series [6], < 1%; in series [7], 28%.

B6: ScFv-Fc fusion protein chain A with T366W + K409A (Fc fusion)
chain: EVQLLESGGGVVQPGRSLRLSCIASGFTFSSYPMTWVRQAPGKGLEWVASISYDGSYKYKADSMKGRLTISRDNSKNTLYLEMNSLTAEDTAVYYCARTAFFNAYDFWGQGTLVTVSSASTKGPSVGGGGSGGGGSEIVMTQSPATLSVSPGERATLSCRASQSVRSNLAWYQQKPGQAPRLLIYAASTRATGIPARFSGSGSGTEFTLTISSLQSEDFAVYYCQQYNEWFRTSGQGTKVEIKRDKTHTCPPCPAPELLGGPSVFLFPPKPKDTLMISRTPEVTCVVVDVSHENPEVKFNWYVDGVEVHNAKTKPREEQYNSTYRVVSVLTVLHQDWLNGKEYKCKVSNKALPAPIEKTISKAKGQPREPQVYTLPPSRDELTKNQVSLWCLVKGFYPSDIAVEWESNGQPENNYKTTPPVLDSDGSFFLYSALTVDKSRWQQGNVFSCSVMHEALHNHYTQKSLSLSPGK
notes: Positions are EU index; also called combination 11 chain A
Consider B6, for which the results for the “ScFv-Fc homodimer (%)” value in series [2], in series [3] and in series [4] were 11%, 52% and 15%, respectively.

B7: ScFv-Fc fusion protein chain A with Y349C + T366W + K409A + Q347R (Fc fusion)
chain: EVQLLESGGGVVQPGRSLRLSCIASGFTFSSYPMTWVRQAPGKGLEWVASISYDGSYKYKADSMKGRLTISRDNSKNTLYLEMNSLTAEDTAVYYCARTAFFNAYDFWGQGTLVTVSSASTKGPSVGGGGSGGGGSEIVMTQSPATLSVSPGERATLSCRASQSVRSNLAWYQQKPGQAPRLLIYAASTRATGIPARFSGSGSGTEFTLTISSLQSEDFAVYYCQQYNEWFRTSGQGTKVEIKRDKTHTCPPCPAPELLGGPSVFLFPPKPKDTLMISRTPEVTCVVVDVSHENPEVKFNWYVDGVEVHNAKTKPREEQYNSTYRVVSVLTVLHQDWLNGKEYKCKVSNKALPAPIEKTISKAKGQPREPRVCTLPPSRDELTKNQVSLWCLVKGFYPSDIAVEWESNGQPENNYKTTPPVLDSDGSFFLYSALTVDKSRWQQGNVFSCSVMHEALHNHYTQKSLSLSPGK
notes: Positions are EU index; also called combination 8 chain A
For B7, the “ScFv-Fc homodimer (%)” value in series [1] turned out to be 21%.

B8: ScFv-Fc fusion protein chain A with T366W + F405K (Fc fusion)
chain: EVQLLESGGGVVQPGRSLRLSCIASGFTFSSYPMTWVRQAPGKGLEWVASISYDGSYKYKADSMKGRLTISRDNSKNTLYLEMNSLTAEDTAVYYCARTAFFNAYDFWGQGTLVTVSSASTKGPSVGGGGSGGGGSEIVMTQSPATLSVSPGERATLSCRASQSVRSNLAWYQQKPGQAPRLLIYAASTRATGIPARFSGSGSGTEFTLTISSLQSEDFAVYYCQQYNEWFRTSGQGTKVEIKRDKTHTCPPCPAPELLGGPSVFLFPPKPKDTLMISRTPEVTCVVVDVSHENPEVKFNWYVDGVEVHNAKTKPREEQYNSTYRVVSVLTVLHQDWLNGKEYKCKVSNKALPAPIEKTISKAKGQPREPQVYTLPPSRDELTKNQVSLWCLVKGFYPSDIAVEWESNGQPENNYKTTPPVLDSDGSFKLYSKLTVDKSRWQQGNVFSCSVMHEALHNHYTQKSLSLSPGK
notes: Positions are EU index; also called combination 16 chain A
Turning to B8, the “ScFv-Fc homodimer (%)” value in series [5] worked out at 5%; in series [6], 3%; in series [7], 23%.

B9: ScFv-Fc fusion protein chain A with T366W + K409A + Y349D + S354D (Fc fusion)
chain: EVQLLESGGGVVQPGRSLRLSCIASGFTFSSYPMTWVRQAPGKGLEWVASISYDGSYKYKADSMKGRLTISRDNSKNTLYLEMNSLTAEDTAVYYCARTAFFNAYDFWGQGTLVTVSSASTKGPSVGGGGSGGGGSEIVMTQSPATLSVSPGERATLSCRASQSVRSNLAWYQQKPGQAPRLLIYAASTRATGIPARFSGSGSGTEFTLTISSLQSEDFAVYYCQQYNEWFRTSGQGTKVEIKRDKTHTCPPCPAPELLGGPSVFLFPPKPKDTLMISRTPEVTCVVVDVSHENPEVKFNWYVDGVEVHNAKTKPREEQYNSTYRVVSVLTVLHQDWLNGKEYKCKVSNKALPAPIEKTISKAKGQPREPQVDTLPPDRDELTKNQVSLWCLVKGFYPSDIAVEWESNGQPENNYKTTPPVLDSDGSFFLYSALTVDKSRWQQGNVFSCSVMHEALHNHYTQKSLSLSPGK
notes: Positions are EU index; also called combination 13 chain A
For B9, the “ScFv-Fc homodimer (%)” value in series [2] was found to be 2%; in series [3], 37%; in series [4], 10%.

B10: VhH-Fc fusion protein chain B with T366S + L368G + Y407A + K409A (Fc fusion)
chain: QVQLQESGGGSVQAGGSLRLSCAASEYIYSSYCMAWFRQAPGKEREGVAVIGSDGSTSYADSVKGRFTISKDNAKNTLYLQMNSLKPEDTAMYYCAAIGGYCYQPPYEYQYWGQGTQVTVSSEPKSSDKTHTCPPCPAPELLGGPSVFLFPPKPKDTLMISRTPEVTCVVVDVSHEDPEVKFNWYVDGVEVHNAKTKPREEQYNSTYRVVSVLTVLHQDWLNGKEYKCKVSNKALPAPIEKTISKAKGQPREPQVYTLPPSRDELTKNQVSLSCGVKGFYPSDIAVEWESNGQPENNYKTTPPVLDSDGSFFLASALTVDKSRWQQGNVFSCSVMHEALHNHYTQKSLSLSPGK
notes: Positions are EU index; also called combination 16 chain B
For the protein B10, the “VhH-Fc homodimer (%)” value is 7% in series [5], 4% in series [6] and < 1% in series [7].

B11: VhH-Fc fusion protein chain B with T366S + L368G + Y407A + F405K (Fc fusion)
chain: QVQLQESGGGSVQAGGSLRLSCAASEYIYSSYCMAWFRQAPGKEREGVAVIGSDGSTSYADSVKGRFTISKDNAKNTLYLQMNSLKPEDTAMYYCAAIGGYCYQPPYEYQYWGQGTQVTVSSEPKSSDKTHTCPPCPAPELLGGPSVFLFPPKPKDTLMISRTPEVTCVVVDVSHEDPEVKFNWYVDGVEVHNAKTKPREEQYNSTYRVVSVLTVLHQDWLNGKEYKCKVSNKALPAPIEKTISKAKGQPREPQVYTLPPSRDELTKNQVSLSCGVKGFYPSDIAVEWESNGQPENNYKTTPPVLDSDGSFKLASKLTVDKSRWQQGNVFSCSVMHEALHNHYTQKSLSLSPGK
notes: Positions are EU index; also called combination 11 chain B
Consider B11, for which the “VhH-Fc homodimer (%)” value in series [2], in series [3] and in series [4] was 0% throughout.
